The values that follow are results of earlier work, collected in patent US11046988B2, “Process for the modification of a glycoprotein using a β-(1,4)-N-acetylgalactosaminyl transferase or a mutant thereof” (Synaffix B.V., priority 2014, dated 2021).

In one series the target is β-(1,4)-GalNAcT (Caenorhabditis elegans, UniProt Q9GUM2). The note with it: sugar nucleotide as donor substrate; cited from earlier work.
The conditions of series [1]: cited from earlier work.

Chain of β-(1,4)-GalNAcT (Q9GUM2 whole entry): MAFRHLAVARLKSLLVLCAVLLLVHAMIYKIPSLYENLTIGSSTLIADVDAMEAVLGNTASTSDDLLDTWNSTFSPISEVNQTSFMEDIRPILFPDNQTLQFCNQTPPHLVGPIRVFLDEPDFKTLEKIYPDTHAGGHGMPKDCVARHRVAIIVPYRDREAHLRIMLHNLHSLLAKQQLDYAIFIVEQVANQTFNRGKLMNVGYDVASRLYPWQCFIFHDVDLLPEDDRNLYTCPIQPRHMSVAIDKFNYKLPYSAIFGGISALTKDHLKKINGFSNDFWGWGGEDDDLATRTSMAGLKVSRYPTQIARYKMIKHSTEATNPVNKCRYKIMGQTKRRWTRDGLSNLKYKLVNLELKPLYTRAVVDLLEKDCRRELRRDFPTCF

As to `CC(=O)N[C@H]1[C@@H](OP(=O)(O)OP(=O)(O)OC[C@H]2O[C@@H](n3ccc(=O)[nH]c3=O)[C@H](O)[C@@H]2O)O[C@H](CO)[C@@H](O)[C@@H]1O` [UDP-GlcNAc], on β-(1,4)-GalNAcT, the “transferase activity remaining (compared with UDP-GalNAc)” value is 0.7%.

B1: β4GalT(Y289L,M344H): double mutant β-1,4-galactosyltransferase 1 described by Ramakrishnan et al. (protein, UniProt P08037 1-402, looked up, variant Y289L M344H)
chain: MKFREPLLGGSAAMPGASLQRACRLLVAVCALHLGVTLVYYLAGRDLRRLPQLVGVHPPLQGSSHGAAAIGQPSGELRLRGVAPPPPLQNSSKPRSRAPSNLDAYSHPGPGPGPGSNLTSAPVPSTTTRSLTACPEESPLLVGPMLIEFNIPVDLKLVEQQNPKVKLGGRYTPMDCISPHKVAIIIPFRNRQEHLKYWLYYLHPILQRQQLDYGIYVINQAGESMFNRAKLLNVGFKEALKDYDYNCFVFSDVDLIPMNDHNTYRCFSQPRHISVAMDKFGFSLPYVQLFGGVSALSKQQFLSINGFPNNYWGWGGEDDDIYNRLAFRGMSVSRPNAVIGKCRHIRHSRDKKNEPNPQRFDRIAHTKETMLSDGLNSLTYMVLEVQRYPLYTKITVDIGTPS
Regarding B1, the “activity in the presence of Mg2+” value in series [1] (Mg2+) was 25-30%. Further, in series [1] (Mn2+), the “loss of Mn2+-dependent activity” value is listed as 98%.
